Assay results taken from article doi:10.1101/2023.11.14.566657 (bioRxiv, 2023).

How the values were obtained:
mass photometry = target: the molecule itself; test: mass photometry
RAD52 wild type [1] = target: T1, RAD52 wild type (human, UniProt P43351 1-418); test: mass photometry
T1 sequence: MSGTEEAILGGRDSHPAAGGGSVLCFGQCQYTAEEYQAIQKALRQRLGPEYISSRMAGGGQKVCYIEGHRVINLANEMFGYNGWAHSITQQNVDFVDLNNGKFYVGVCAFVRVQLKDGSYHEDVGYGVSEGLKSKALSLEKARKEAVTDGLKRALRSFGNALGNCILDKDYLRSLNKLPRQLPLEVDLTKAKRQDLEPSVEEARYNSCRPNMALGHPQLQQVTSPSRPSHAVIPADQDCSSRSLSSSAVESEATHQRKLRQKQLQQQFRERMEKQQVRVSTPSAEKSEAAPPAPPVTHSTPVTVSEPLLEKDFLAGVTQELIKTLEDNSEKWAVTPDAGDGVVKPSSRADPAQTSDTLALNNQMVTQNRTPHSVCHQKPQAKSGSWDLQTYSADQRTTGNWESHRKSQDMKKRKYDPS

RAD52 wild type;SMARCAL1 = target: T2, RAD52 wild type;SMARCAL1 (human;human?, UniProt P43351;Q9NZC9 1-418;1-954, |); test: mass photometry
T2 sequence 1: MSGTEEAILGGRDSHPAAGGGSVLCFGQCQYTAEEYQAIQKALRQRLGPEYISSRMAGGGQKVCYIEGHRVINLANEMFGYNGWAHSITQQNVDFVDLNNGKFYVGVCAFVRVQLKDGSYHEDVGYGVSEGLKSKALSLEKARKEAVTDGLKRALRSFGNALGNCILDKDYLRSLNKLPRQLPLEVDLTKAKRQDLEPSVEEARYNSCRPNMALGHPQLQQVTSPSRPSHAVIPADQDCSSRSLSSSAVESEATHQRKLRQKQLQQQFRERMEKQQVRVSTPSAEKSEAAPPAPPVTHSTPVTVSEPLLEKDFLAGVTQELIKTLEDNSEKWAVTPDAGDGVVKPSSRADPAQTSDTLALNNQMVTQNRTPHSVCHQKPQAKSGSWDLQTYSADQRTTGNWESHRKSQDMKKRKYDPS
T2 sequence 2: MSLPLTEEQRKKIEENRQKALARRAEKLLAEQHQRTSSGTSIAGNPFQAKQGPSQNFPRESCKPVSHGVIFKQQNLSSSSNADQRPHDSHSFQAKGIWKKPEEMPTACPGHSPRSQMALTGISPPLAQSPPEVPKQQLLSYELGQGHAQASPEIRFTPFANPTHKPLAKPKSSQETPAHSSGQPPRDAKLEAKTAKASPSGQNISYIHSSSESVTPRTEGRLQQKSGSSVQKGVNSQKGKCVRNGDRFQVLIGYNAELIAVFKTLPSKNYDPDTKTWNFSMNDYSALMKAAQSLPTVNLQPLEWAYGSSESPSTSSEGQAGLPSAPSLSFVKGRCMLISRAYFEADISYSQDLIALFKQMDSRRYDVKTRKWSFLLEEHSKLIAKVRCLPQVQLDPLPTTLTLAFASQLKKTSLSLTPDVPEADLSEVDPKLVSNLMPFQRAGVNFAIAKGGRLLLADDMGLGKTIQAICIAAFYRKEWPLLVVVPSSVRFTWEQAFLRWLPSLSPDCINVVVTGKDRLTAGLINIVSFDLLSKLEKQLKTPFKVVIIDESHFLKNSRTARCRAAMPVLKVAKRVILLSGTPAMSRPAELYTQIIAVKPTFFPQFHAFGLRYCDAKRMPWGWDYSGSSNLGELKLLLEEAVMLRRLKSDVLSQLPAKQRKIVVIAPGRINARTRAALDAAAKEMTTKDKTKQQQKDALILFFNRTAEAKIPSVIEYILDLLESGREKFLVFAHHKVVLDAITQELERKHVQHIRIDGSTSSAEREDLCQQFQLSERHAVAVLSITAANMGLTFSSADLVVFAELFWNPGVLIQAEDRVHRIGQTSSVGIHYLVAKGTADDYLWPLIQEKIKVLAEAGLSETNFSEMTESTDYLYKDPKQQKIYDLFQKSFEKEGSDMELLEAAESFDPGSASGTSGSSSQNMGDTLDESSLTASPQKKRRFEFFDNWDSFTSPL

RAD52 IBD = target: T3, RAD52 IBD (human, UniProt P43351 1-418, K152A;R153A); test: mass photometry
T3 sequence: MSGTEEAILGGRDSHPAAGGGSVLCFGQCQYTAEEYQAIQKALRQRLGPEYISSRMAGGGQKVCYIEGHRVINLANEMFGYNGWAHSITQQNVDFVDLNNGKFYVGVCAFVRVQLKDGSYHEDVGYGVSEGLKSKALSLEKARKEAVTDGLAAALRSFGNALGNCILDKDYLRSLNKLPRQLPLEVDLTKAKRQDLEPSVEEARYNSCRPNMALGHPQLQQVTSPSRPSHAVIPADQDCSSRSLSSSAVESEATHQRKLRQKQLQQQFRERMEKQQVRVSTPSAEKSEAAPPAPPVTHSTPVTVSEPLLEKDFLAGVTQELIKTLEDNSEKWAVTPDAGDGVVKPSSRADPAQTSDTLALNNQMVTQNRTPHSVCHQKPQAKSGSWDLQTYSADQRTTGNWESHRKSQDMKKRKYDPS

RPA = RPA (UniProt P27694;P15927;P35244 1-616;1-270;1-121); test: mass photometry
SMARCAL1 = target: T4, SMARCAL1 (UniProt Q9NZC9 1-954); test: mass photometry
T4 sequence: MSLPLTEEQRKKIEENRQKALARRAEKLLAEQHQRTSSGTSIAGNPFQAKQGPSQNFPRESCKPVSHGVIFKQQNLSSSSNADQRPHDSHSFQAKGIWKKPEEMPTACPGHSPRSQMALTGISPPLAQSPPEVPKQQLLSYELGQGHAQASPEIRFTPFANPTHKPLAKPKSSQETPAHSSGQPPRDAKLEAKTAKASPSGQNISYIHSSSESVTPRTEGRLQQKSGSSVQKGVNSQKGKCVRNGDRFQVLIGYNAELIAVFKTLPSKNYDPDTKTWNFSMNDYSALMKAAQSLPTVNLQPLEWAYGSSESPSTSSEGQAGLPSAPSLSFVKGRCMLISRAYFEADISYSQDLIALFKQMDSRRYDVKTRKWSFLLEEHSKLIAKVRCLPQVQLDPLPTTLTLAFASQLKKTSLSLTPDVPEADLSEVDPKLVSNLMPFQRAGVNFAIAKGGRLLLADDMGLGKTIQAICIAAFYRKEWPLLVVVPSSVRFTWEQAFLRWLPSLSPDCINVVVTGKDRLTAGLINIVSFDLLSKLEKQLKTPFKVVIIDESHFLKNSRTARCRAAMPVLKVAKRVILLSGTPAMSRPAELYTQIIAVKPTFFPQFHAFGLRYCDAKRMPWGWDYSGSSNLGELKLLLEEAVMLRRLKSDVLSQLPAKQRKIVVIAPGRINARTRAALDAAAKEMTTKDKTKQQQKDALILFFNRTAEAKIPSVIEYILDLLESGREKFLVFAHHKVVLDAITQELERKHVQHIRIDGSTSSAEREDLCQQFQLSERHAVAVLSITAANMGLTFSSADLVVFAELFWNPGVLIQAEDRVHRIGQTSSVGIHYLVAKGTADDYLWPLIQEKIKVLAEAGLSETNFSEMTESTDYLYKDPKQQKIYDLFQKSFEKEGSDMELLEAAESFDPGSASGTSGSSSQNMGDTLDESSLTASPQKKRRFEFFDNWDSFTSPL

RAD52 wild type;RPA = RAD52 wild type;RPA (human;human?, UniProt P43351;P27694;P15927;P35244 1-418;1-616;1-270;1-121, |); test: mass photometry
RAD52 wild type [2] = target: T1, RAD52 wild type; test: P1 nuclease footprinting
RAD52 wild type [3] = target: T1, RAD52 wild type; test: P1 nuclease footprinting; remark: listed apart in the source

Chain of RPA (P27694 whole entry, chain 1 of 3): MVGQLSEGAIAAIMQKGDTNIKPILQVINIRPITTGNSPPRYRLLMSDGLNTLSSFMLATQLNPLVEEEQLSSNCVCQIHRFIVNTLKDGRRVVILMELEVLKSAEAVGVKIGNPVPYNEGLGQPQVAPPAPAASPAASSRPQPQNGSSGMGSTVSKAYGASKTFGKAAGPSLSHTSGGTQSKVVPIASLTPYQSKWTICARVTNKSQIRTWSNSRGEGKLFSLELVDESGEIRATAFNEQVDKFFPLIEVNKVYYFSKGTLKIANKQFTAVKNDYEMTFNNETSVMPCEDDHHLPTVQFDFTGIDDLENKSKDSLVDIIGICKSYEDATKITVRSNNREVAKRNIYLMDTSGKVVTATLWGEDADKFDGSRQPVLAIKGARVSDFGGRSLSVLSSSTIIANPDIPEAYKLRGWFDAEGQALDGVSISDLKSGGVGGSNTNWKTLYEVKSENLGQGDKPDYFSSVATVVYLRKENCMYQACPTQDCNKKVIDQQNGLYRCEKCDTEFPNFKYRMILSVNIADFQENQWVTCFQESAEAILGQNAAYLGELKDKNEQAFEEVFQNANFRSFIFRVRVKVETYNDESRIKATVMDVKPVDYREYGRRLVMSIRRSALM
Chain of RPA (P15927 whole entry, chain 2 of 3): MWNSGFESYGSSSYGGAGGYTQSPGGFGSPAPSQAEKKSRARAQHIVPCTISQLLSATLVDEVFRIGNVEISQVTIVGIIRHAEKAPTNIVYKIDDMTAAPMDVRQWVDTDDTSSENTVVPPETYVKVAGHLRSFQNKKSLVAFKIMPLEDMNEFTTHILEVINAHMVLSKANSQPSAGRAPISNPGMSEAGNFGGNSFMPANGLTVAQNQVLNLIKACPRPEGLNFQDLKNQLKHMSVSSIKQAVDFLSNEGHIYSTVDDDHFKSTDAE
Chain of RPA (P35244 whole entry, chain 3 of 3): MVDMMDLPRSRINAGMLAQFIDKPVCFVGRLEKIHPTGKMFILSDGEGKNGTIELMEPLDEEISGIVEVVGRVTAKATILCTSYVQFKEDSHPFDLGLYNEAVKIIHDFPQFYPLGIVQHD
Chain of RAD52 wild type;RPA (P27694 whole entry, chain 2 of 3): as the sequence (P27694 whole entry, chain 1 of 3) above
Chain of RAD52 wild type;RPA (P15927 whole entry, chain 3 of 3): as the sequence (P15927 whole entry, chain 2 of 3) above
Chain of RAD52 wild type;RPA (P35244 whole entry, chain 4 of 3): as the sequence (P35244 whole entry, chain 3 of 3) above

B1: 6xHis-tagged human RAD52 protein (wild type) (natural protein)
chain: MSGTEEAILGGRDSHPAAGGGSVLCFGQCQYTAEEYQAIQKALRQRLGPEYISSRMAGGGQKVCYIEGHRVINLANEMFGYNGWAHSITQQNVDFVDLNNGKFYVGVCAFVRVQLKDGSYHEDVGYGVSEGLKSKALSLEKARKEAVTDGLKRALRSFGNALGNCILDKDYLRSLNKLPRQLPLEVDLTKAKRQDLEPSVEEARYNSCRPNMALGHPQLQQVTSPSRPSHAVIPADQDCSSRSLSSSAVESEATHQRKLRQKQLQQQFRERMEKQQVRVSTPSAEKSEAAPPAPPVTHSTPVTVSEPLLEKDFLAGVTQELIKTLEDNSEKWAVTPDAGDGVVKPSSRADPAQTSDTLALNNQMVTQNRTPHSVCHQKPQAKSGSWDLQTYSADQRTTGNWESHRKSQDMKKRKYDPS
stoichiometry N (mass photometry): 10

B2: heterologous fork, 30 nt gap (#6/#2/#3/#4) (mixed)
DNA 1: GGTATATTCAACAGTTCAACGACGAATGTTTTTTTTTTTTTTTTTTTTTTTTTTTTTTCTTTTGAGGCAGGCATGGTAGC
DNA 2: GCTACCATGCCTGCCTCAAAAGTTCGTAATATGCTACACACTGGAGTACCGGCATTCGTCGTTGAACTGTTGAATATACC
DNA 3: GGTACTCCAGTGTGTAGCATATTACGAACTTTTGAGGCAGGCATGGTAGC
DNA 4: GCTACCATGCCTGCCTCAAAAG
binding result (RAD52 wild type [1]): binds
binding result (RAD52 wild type;SMARCAL1): binds
binding result (RAD52 IBD): binds
binding result (RPA): binds
binding result (SMARCAL1): binds
binding result (RAD52 wild type;RPA): binds

B3: homologous fork, 30 nt leading gap (#1/#2/#3/#4) (mixed)
DNA 1: GGTATATTCAACAGTTCAACGACGAATGTTGGTACTCCAGTGTGTAGCATATTACGAACTTTTGAGGCAGGCATGGTAGC
DNA 2: GCTACCATGCCTGCCTCAAAAGTTCGTAATATGCTACACACTGGAGTACCGGCATTCGTCGTTGAACTGTTGAATATACC
DNA 3: GGTACTCCAGTGTGTAGCATATTACGAACTTTTGAGGCAGGCATGGTAGC
DNA 4: GCTACCATGCCTGCCTCAAAAG
binding result (RAD52 wild type [2]): binds

B4: heterologous fork P1 assay (#5/#2/#3/#4) (mixed)
DNA 1: GGTATATTCAACAGTTCAACGACGAATGTTGTGCATAACGTCGCTCCGTAGCTATACGCTTTTGAGGCAGGCATGGTAGC
DNA 2: GCTACCATGCCTGCCTCAAAAGTTCGTAATATGCTACACACTGGAGTACCGGCATTCGTCGTTGAACTGTTGAATATACC
DNA 3: GGTACTCCAGTGTGTAGCATATTACGAACTTTTGAGGCAGGCATGGTAGC
DNA 4: GCTACCATGCCTGCCTCAAAAG
binding result (RAD52 wild type [3]): binds
